Measured values published in the NTF2 design screens of Basanta et al. (2020).

Test: protease stability score; higher = more stable; yeast display proteolysis, trypsin and chymotrypsin;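 note: relative to predicted unfolded state with 0 unfolded-like and 1 meaning tenfold more protease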

DEIEHLVHWAVEVYRHVLETGNESDLFRLFDPHVKLDVNGKEIVGREDVIEFISREIKQFDHVKLRIHRIDFQGDFVEVEGRLIVRQGDKEIRHDVRIYAEKIDGQWNVKSLSFR
protease stability score: 2.48

DEIEHMIHEIFERWIKAWLTGDWRTIEKLFDPDVRVEINGVEIIGRELMSKVLIRKYDEMRSRVKLESEHAQGDKAHFNVNIILHIGDKTIERRSRIHIRIYNGRIHEVRVEED
protease stability score: 2.4

DEIEKELTDVFWEWLHLHITGDEDRLRDLMDPDVRLIYGDKTAVGREEFEKMWRELRHRFDHIRNVQIHDKRIVGNKLEMDFNFDHEVNGRREHTRVKIVLITINGKLHAFRIEVE
protease stability score: 1.4

DEIEKEMLKRARDILENWVTGDEDEFNRLADPNVRFELVYGDKSHSHHGMENLKKWLEEWTKRVDHFDLKIKSQRVVGDKAETETKLILNYDGRRFEHDTRIDVVVVNGRIKQIRVEIR
protease stability score: 1.59

DEIEKESERVMEKYFEDFITGDWETMWRQVDPHVKFRIGDKHFHGREQATRVYKEFLDELGVKVRRIHDFEFTLFDGRAYVHLDSTLRVNGRDHRLHITIIVEKINGRWRLHEFELRLH
protease stability score: 0.367

DEIEKHHRELIELLFHWWHTGDFDSFHRFADPDVKLDFNGVEIHGRERANEFMTRLKEEIRIDDVKLERVQVIDGRMIIHGRRDGNVNGQKEDREVELYVIAINGRIKSVEIRIR
protease stability score: 1.71

DEIEKSVKHHDQVFRTAIETGDEHELEHLADPNVRWDINGVDLHGRELYLKIVLEIRMRIELRVRDVRWQGNYIIVISEVDSHHHINGVETRDRSDAHLIIFKVNGRWELKESRRH
protease stability score: 1.35

DEIEKVLEISYRLMHESWRTGDEDHLRDLIDPHARVIIDGRTYHGRDAMHLFVDELLREFGITQVDIEMKRIHVQGDKVESHHDINFNGQRVEVDISFHKVNGRWIAESVTWR
protease stability score: 1.24

DEIENLIVKLAMDFIKDEITGDEERLRHLADPHTRHHIGDKHFHGMELIMKHWKTMADRFDHLEVRLEHVRVQGDKVDVHGHIIEEYNGKRIEHHIRLNVEIVDGRVTRYHVKID
protease stability score: 1.32

DEIEQIMEYLAHVHIEFIITGDEDTLEHLADPHVKIEVNGQSLVGWKHWSRFLKKLGWKRDMRVRHIHAQGDKIHVDGHLVNDFDGREFRYKTHLEIKVVDGKLKVIRIDQE
protease stability score: 1.41

DEIEREAKHVVHLLIHALLTGDERLFEELVDPDARLVINGRHYHGREEVNLAMKEWRLHRFEIKDFQYEWQGNKIISRIHTREDGHVDGQRVETRSELVIFLVKINGRWRMEFVEFRFS
protease stability score: 2.42

DEIERESRKFFELWVHWYRTGNFEEIHKNLDPNARIEINGREIHGREDVLRLLEEIAKQFDHIEVELKDMHVQGDKMTIEGIIIFHFNGKRVEIHMIHIVLKINGQWFEHSQEYN
protease stability score: 0.626

DEIERKVIEFWHLLRHALITGDEDLIEDLFDPHVRTDIGDKEHHGREEFRRLWREHGIRIKDVHIEHVTIIGNKVDMEVRFHLEINGRETHKRVILVAQKIDGRWRIREYHVK
protease stability score: 1.88

DEIERLFRELVNLIFELLRTGNFRKLEELLDPHTRLTIGDKYYHGRESVIEYLKHLWEQLGVDHMEFHVKRVDIQGEKVNADTEIRIKIGDKTYFRDTVLIFLKIDGRWEIRAWEEK
protease stability score: 1.52

DEIERLLKEVMRIFYENFQTGDEESLKELADPNVRYQIGDKSDHGREHLWRVQHEVHRRMGIKHTHLLIKSVEIVDGVAVIHGSLRLDFDGRHIEWHLHLRLKLIDGKIKEVEHELV
protease stability score: 1.36

DEIERRAREFFELWMQTVRTGDEHASSELLDPHVRIEQGDKSFHGRETYNEILHHLHRHMWFEIYLDSIEIQGDKIHARVNFVYIIGDKESWIDVHIHIDVINGRMKRLEIRDH
protease stability score: 0.511

DEIHEDFDRFLEEYLESLRTGDWKKVEELHDPNTRVDIGDKHVIGMDLLAHLETKDFIKRGARVDMHVRRFEIQGNKIIIHGELRIHYGDKHVRINIHLDIRKINGKWIIRHEEIR
protease stability score: 1.13

DEIHEKVQLAAEIFEEIVRTGDEELFMRYMDPHVRLIDENEIYHGMDIWHKWLHERHEKLGAKHEEVKTRSLDLQGEKLRVEGDFVVNVNGRTFHHRLHLIYRKIDGQWRYEQISLE
protease stability score: 0.853

DEIHKDAHRFVELLLRLLRTGDEDSIEKLMDPHAKININGQERIGREETIELALHWRNDDHHIHDMITINGRVDVHGRVKGEFDGRHQEFTFRLIVLKVNGRWVNESHHYI
protease stability score: 0.83

DEIHKDAKEFTKRFIDSLHTGDWKELLEMFDPHTRIVVGDKEFIGMDEILRFERELGIEKVDYHLKHVEIRVQGEKADIHITGEIRFNGQTVDRELNIHARKIDGRWKVDEVNLDRR
protease stability score: 1.88

DEIHQFIEHMTKLLITALYTGDERMLEELADPHVKLDIGDKHSVGRENFVEMMKWLADHIRVRHTDIHDLKIYGEKTRVDMRVDGEVDGQRVEYRVEIFLFVVDGRLKRSSVHFK
protease stability score: 1.09

DEIKDHVEHASRLLLETYETGDEHTLERLVDPHVKLEVNGQEHVGRETTRWMLEFFKNLKIRIEDVRWQGNKIEIHSILHFNGKDLEMIYFAEKVDGRWVIRSVRTT
protease stability score: 1.38

DEIKESAEEAQRTWVHNSLTGNEEELSRNADPDVRVIIYVNGREIRLIGREFLEELMHRVKNLTIEVDEIRFQGDKIRFNERWTVNGVPRHVDLVMHKFNGKWHIHSINIHVV
protease stability score: 1.15

DEIKKVALKMADLIFELYLTGNEELLRKLADPHMKLIIDGREFHGMHVSHEWILRELKEIRIEDWKIKDVHLQGNKVHIDLRVHGVVDGQREERDVKIHIIVINGRIHSMEMHKE
protease stability score: 2

DEIKRHFDEFIKVLREIIRTGDEEDLVRLMDPNVKLEVGDKRFHGMEVLDVLHKRADHLHEFDIHDWNIQGDKARVDLRLVGQFNGRTVIDNTTLWYEKIDGKWFIKSMRIH
protease stability score: 1.18

DEIKTELEKWLREFIRDMRTGDEDTLRQQADPNMRLDVNGQEIIGWDRILREEIRLRHDLGLTQIHVTVKDHRIQGEKIHNRGEIIYGEFRLDTILIVKKVDGRWRATDMVVV
protease stability score: 1.17

DEILHAWSRALTILLEIWKTGNEEEVEKMFDPNTRLIIGDKILHGREHIEDFVRRVDVADMHEFRVHDSHKYGEKIDIDGHVTGRLVIGDKEVRQETRVRSIIIKVDGKWIIHRLTFI
protease stability score: 0.907

DEINEDLERQARLFYHLWLTGDEEILEKLVDPHVRIILVFNGVPKQDHGREWLMKLFEEIRVEHFEIKTFEIQGEKAIMDTHEIIHVNGKRTRLRVHLWLTMVNGRIKTIEIRFV
protease stability score: 2.13

DEINKMLKEVLDRYTEAIRTGDEDILLELLDPNTRVIINGQDKHGREYWYTWFAELLKRVDHQDVRFHEIRLQGDKVQVDVELIFNAENHHLHIRTDIIIEKFDGRWIITEFRMH
protease stability score: 1.38

DEIQRLMKYVFEEWVKWFLTGDEEKFNKMVDPDVRLIVNGQHSHGREKANEMWEIYYERFDYIHEFRVHSIRIQGDKVHVDVRLIGRQGDKTIDTRTEIHLVIIDGRIKRAEVRVE
protease stability score: 2.62

DEIREEMEKVFRVFIHNMFTGDFEKLEELADPNARSKVDGVDDHGMHKFLRHWLHHVRRYGMKVEFEVHHIDVQGDKVQIDTRIVIDYNGRRFEWKSELIAVKIDGQWLIKRIIIH
protease stability score: 1.6

DEIREESERFARKLVHDWQTGDWRSLLLLMDPNVRLILHFNGVEYRFHGMEIVLEWLKRLIERVDHVFFHVKDIRIQGDKIELRIEEEFRQGDKSRRHDVVLHLVVIDGKIKSISFEVL
protease stability score: 2.7

DEIRKMVEESFEIILHSILTGDEHIEEFLADPHVRILINGVTFHGREEFHKLIEHYLKHWRIKDSKVDHVHAQGEKIEMRVTIHGTVDGQEQTREVIIIAKKVDGRWSMKHVEVR
protease stability score: 2.08

DEITEHTRSLMEVMLRVWETGDWKRFRELADPNVRMNVNGREVHGRDSVAKEIYKMLSDLGVDHSTTHHVDLIGNKAHHDVRMFFNGRETEIRIDIVLINGKVREVNIEIHTR
protease stability score: 2.14

DEITETAERLLRLWVHNFETGNWKKMVDLIDPNARLDVNGRHIHGWEEIAKHLTDELREWRIREIRIRDVKFIDGVNHTHIESDIEYDGRRDRTEMRIIIVVVNGRIKSVKFEIL
protease stability score: 1.2

DEITHEIEHNLKLLLKAWETGDEHLLTEMIDPHDKIHIGDKTIIGRELRLEIEKRLGAKVVEVEIKRIEVQGDKILMHGTIHIEIGDKRFERESRFVAHKFNGRWHQKSLDII
protease stability score: 1.21

DEITRELKHIFEEVIRAILTGDWRRLHHLLDPRVRSKFEFENRHVDLHGMETVLHWMERWSQELRVEDFHLNDFRVIGDYIVLDGRVQNRQGDKKIDVRVELIVFVVNGKVTELRETSR
protease stability score: 1.17

DEITTLFRKILELMEHALKTGDWEIHKRLMDPHTKSNVNGVVAIGREELDKLWKELDKQVDHVEDSHFTEFRIQGDYIRIHVQIRIRVGDKFHDLKVDYHLVIINGVMKSSSVTFH
protease stability score: 0.963

DEIVEMVREIAEEILHAELTGDEDKFKKLIDPNVRLQINGKDIHGMEDFRKWNEEWRIHHIEVKHLDIFEGHSRMDGKLDGTINGQRRNLKTILEIKVVDGRVKEITIHVL
protease stability score: 1.12

DEIYEDIKHIVDLLSHAHETGDEHELKHLADPNVKWIINGVELVGWEDFRKLLEHLRHKRVHMDPRDVKRQGDYIHVTAELRFTGVFNGREREETFEVHLHMKKVNGRWLLTSVRVK
protease stability score: 1.48

DEKDEFNHKIAHQFSESLHTGDFKLLESLFDPNVRSDINGREIIGMEELVHFWEEWKRKFPNAKERYRTESIEHQGEKTISNMRVDLHQGDFHLHREWRVEIHIIDGVVKEVRIENR
protease stability score: 1.23

DEKDEHMENLMREFMHSTLTGDEELLERMADPHVKVIVNGKELIGRESWRKWLEELEKRFKHAKFIWLLHRVDVQGEKANSDGVRRINFDGVNINLKTHIFIHVVNGKLKEIEIHDK
protease stability score: 1.33

DEKDEKLLRFAHEIIELFLTGNEERFTELLDPRVKLDIDGKNAVGREETQRLWEEILHRIDVMHIRIHRYKAQGNKVILDGLIHIEVGDKNEERHSRLHIHVYDGKIKSIRLEYH
protease stability score: 2.08

DEKDELMERIARLMMEYLDTGDEENLNKLADPNVKIDIRIGDKVIDDHGMENLLHRLRHIRSNLRVHNFHAQGDFVKIDTRVTFHVNGQDIHHTVEVRLFIVNGKIHRIEFIFR
protease stability score: 2.6

DEKDKITQDLVKNIIDLFRTGNEDDLRRLADPHVQTHVNGRTIIGMEDASRKIKEILEELGIDHVHWHHVQAQGEKVEIHMEHRVGDKNWELIIRMDLVNGRIKRQEVELR
protease stability score: 0.927

DEKDKMSEVTLKLYIHWFLTGDWKSLFDLVDPHMQVRVGDKKFHGREQAVEEIERLLKRIDHITHIQERSFEIIGNKVHLDGELNVIIDGKRIVKDQIIIAVKIDGKWLLQIDEFE
protease stability score: 1.92

DEKDNVVEHLARRLIEAELTGDWKFLSELIDPNVRVQVGNKKSHGREEYVHIAEEWWIHEQHIRHVEIQGDKVHLEVETDMVVDGRRVRIEIEIHIHIINGRIKEIRINIV
protease stability score: 0.989

DEKDRISKKIVELWMRALITGDEEEMDRMADPDVRIKYGDKVSHGMEEARETWEHIRWRDIRLDHVDSYNGRIRIDGTVHIEINGREDTTRVEIILHVIDGRIKEIRVIIR
protease stability score: 1.3

DEKDRLSEELAKHLYRMMYTGDWERIFKMADPHVRLVIGDKEFHGRENFEETLRDHLEKIKNATMRLDDIELQGDKVHIFFTIHVNGREVEVEVHIRVIDGRIHHVDVQVRWV
protease stability score: 1.49

DEKEDHMRKIALILIKDWLTGNEESLRHMADPNVRVHIHQGNKNIHKHGMEALRELWEEIRIRHFNLERQNVINGVVFIDGRVDGEVDGRRVDTDVEVIIVIVNGRMKLLSRHIE
protease stability score: 1.34
